Measured values taken from patent US20100278818A1.

Key:
[1] = molecular target: Tn antigen (GalNAc alpha-O-Ser/Thr of a polypeptide chain) at the surface of human tumor cells; experiment: flow cytometry, biotinylated IVIG control and SA-PE on EpCam+CD45- ovarian cancer cells from patient ascitis
[2] = molecular target: Tn antigen (GalNAc alpha-O-Ser/Thr of a polypeptide chain) at the plasma membrane of murine tumor cell lines; experiment: flow cytometry MFI against antibody concentration on TA3HA cells
[3] = molecular target: Tn antigen (GalNAc alpha-O-Ser/Thr of a polypeptide chain) at the surface of human tumor cells; experiment: flow cytometry, biotinylated chi-83D4 and SA-PE on EpCam+CD45- ovarian cancer cells from patient ascitis (one representative patient)
[4] = molecular target: Tn antigen (GalNAc alpha-O-Ser/Thr of a polypeptide chain) at the surface of human tumor cells; experiment: flow cytometry MFI against antibody concentration on Jurkat cells; parameters: unit not given here
[5] = molecular target: Tn antigen (GalNAc alpha-O-Ser/Thr of a polypeptide chain) at the surface of human tumor cells; experiment: flow cytometry MFI against antibody concentration on Shin3 cells; parameters: unit not given here
[6] = molecular target: Tn antigen (GalNAc alpha-O-Ser/Thr of a polypeptide chain) at the surface of human tumor cells; experiment: flow cytometry, biotinylated chi-83D4 preincubated with GalNac (1 M), SA-PE, EpCam+CD45- ovarian cancer cells from patient ascitis
[7] = molecular target: Tn antigen (GalNAc alpha-O-Ser/Thr of a polypeptide chain) at the surface of human tumor cells; experiment: immunohistochemistry, biotinylated chi-83D4 and avidin-HRP on 3 primary ovarian serous adenocarcinomas

Molecule | MFI [1] | saturating concentration [2] [mg/mL] | MFI [3] | saturating concentration [4] | saturating concentration [5] | MFI [6] | percent of tumor cells labeled [7] [%]
Intravenous immunoglobulin (Tegeline, IVIG) (antibody) | 1810 | – | – | – | – | – | –
chimeric anti-Tn (chi-83D4) mAb (antibody, human IgG1, kappa, V domains shown) VH: QVQLQQSDAELVKPGASVKISCKASGYTFTDHAIHWVKQKPEQGLEWIGYFSPGNGDIKYNEKFKGKATLTADKSSSTAYMQLNSLTSEDSAVYFCKRSYGNYDYWGQGTTLTVSS VL: DILLTQSPAILSVSPGERVSFSCRASQNIGTSIHWYQQRTNGSPRLLIKYASESVSGIPSRFSGSGSGTDFTLSINSVESEDIADYYCQHTNSWPTTFGGGTKLEIKR | – | 50 | 4490 | 70 | 20 | 1830 | 70 to 80
